Laboratory results published in patent US8986954B2, “DNA encoding function modifying Nav1.7 antibodies” (UCB Pharma S.A., priority 2009, dated 2015).
Changes are numbered by the printed parent chain.

B1: CA167_00983: rabbit anti-Nav1.7 monoclonal antibody, B11-specific; VH SEQ ID NO:148, VL SEQ ID NO:147 (antibody, V domains shown)
VH: QSVEESGGRLVTPGTPLTLTCTVSGFSLSNYAMSWVRQAPGKGLEWIGIIGKSGSTAYASWAKGRFTISRTSTTVDLEITSPTTEDTATYFCVRFVLLWGPGTLVTVS
VL: AQVLTQTASPVSAAVGGTVTINCQSSQSVYKNNDLAWYQQKPGQPPKLLIYYASTLASGVSSRFKGSGSGTEFTLTISDAQCDDAATYYCLGSYDCSSADCNAFGGGTKVVVK
modifications: derived from rabbit
B2: CA167_01080: rabbit anti-Nav1.7 monoclonal antibody, B11-specific; VH SEQ ID NO:176, VL SEQ ID NO:175 (antibody, V domains shown)
VH: QSLEESGGRLVTPETPLTLTCTASGIDLSKWPMTWVRQAPGKGLEWIGIIGRSGSTNYASWAKGRFTISKTSTTVDLKMTSPTTEDTATYFCARGGSYYDLWGQGTLVTVS
VL: B1 VL with G17N, N22T, Y30W, A36S, P42L, G66A, E72Q, A80V, A86G, L91V
modifications: derived from rabbit
B3: CA167_00932: rabbit anti-Nav1.7 monoclonal antibody, A32-specific; VH SEQ ID NO:140, VL SEQ ID NO:139 (antibody, V domains shown)
VH: QSLEESGGRLVTPGTPLTLTCTVSGFSLSRYWMSWVRQAPGKGLEWIGNIGGGSGSTLYAPWAKGRSTISKTSTTVDLKITSPTTEDTATYFCGRYVKNGGGYRLDLWGPGTLVTVS
VL: AAVLTQTPSSVSAAVGGTVTIKCQSSQSVYNNNEFSWYQQKPGQPPKLLIYDASKLASGVPSRFSGSGSGTQFTLTISGVQCDDVATYYCLGGYNDDTNRWAFGGGTEVVVE
modifications: derived from rabbit

Assays:
[1] = at best, in about 40% of patients (Dworkin, 2002); cited from earlier work
rat Nav1.7 channels = biological target: T1, rat Nav1.7 channels (Rattus norvegicus, UniProt O08562); assay: Automated Patch Clamp analysis of recombinant rat Nav1.7 channels expressed in HEK cells; format: cell-based; conditions: recombinant rat Nav1.7 in HEK cells
T1 construct: expressed in transfected cells; host or cells: HEK cells
T1 sequence (O08562 whole entry): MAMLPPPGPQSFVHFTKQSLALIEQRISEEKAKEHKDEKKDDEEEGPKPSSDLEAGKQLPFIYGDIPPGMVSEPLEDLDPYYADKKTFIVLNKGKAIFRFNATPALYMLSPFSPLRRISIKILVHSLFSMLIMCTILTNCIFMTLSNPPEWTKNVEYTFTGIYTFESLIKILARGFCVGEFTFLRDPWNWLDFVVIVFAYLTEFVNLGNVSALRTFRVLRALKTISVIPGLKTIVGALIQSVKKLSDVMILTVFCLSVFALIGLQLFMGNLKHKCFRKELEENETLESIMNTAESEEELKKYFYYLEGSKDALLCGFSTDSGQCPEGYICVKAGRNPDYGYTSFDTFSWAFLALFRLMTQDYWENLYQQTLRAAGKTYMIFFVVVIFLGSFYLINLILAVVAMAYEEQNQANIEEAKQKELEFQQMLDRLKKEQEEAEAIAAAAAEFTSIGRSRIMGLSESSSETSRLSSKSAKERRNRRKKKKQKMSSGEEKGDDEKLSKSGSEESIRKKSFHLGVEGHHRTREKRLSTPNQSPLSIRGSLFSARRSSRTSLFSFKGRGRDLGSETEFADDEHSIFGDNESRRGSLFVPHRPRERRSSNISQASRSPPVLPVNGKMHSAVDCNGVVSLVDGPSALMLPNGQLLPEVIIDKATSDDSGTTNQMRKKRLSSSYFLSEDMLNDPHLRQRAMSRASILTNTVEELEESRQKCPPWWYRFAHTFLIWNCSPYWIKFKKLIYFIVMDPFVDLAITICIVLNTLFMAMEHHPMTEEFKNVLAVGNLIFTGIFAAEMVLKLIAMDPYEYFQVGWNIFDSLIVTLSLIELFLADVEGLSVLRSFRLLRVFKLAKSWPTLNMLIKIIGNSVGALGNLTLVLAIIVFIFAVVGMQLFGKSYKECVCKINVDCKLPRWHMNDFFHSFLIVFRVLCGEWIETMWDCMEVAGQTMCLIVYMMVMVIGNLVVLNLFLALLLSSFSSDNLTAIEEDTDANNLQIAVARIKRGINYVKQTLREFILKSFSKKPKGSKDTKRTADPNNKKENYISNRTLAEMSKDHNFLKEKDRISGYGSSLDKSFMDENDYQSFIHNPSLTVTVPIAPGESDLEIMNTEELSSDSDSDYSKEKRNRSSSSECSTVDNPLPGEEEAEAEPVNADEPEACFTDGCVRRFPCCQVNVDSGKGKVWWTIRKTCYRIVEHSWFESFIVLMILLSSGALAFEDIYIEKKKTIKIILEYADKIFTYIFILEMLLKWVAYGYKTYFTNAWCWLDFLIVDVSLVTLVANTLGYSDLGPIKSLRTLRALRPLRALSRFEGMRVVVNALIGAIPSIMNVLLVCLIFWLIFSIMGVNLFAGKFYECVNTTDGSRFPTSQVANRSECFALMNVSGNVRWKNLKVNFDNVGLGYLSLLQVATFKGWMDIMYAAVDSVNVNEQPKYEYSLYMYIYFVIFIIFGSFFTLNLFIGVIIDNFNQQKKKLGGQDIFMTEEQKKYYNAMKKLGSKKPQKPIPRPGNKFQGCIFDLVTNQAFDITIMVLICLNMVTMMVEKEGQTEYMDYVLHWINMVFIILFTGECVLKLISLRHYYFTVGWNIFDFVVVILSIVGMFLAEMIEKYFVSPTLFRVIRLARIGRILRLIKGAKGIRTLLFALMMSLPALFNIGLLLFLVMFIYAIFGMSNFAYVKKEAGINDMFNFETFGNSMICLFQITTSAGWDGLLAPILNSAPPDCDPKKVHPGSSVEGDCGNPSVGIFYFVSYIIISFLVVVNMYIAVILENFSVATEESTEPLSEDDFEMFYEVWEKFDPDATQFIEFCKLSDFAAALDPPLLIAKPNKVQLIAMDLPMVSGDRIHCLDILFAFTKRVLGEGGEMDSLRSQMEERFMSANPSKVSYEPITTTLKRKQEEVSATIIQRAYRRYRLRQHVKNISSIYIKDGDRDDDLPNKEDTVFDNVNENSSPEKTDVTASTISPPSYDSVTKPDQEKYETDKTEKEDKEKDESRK
Text: Automated Patch Clamp analysis of recombinant rat Nav1.7 channels expressed in HEK cells. […] Data points represent the normalized peak current amplitudes after application of a repeated voltage step protocol (end point) in the presence of antibody.

[2] = test system: cultured rat dorsal root ganglion (DRG) neurons; assay: Dorsal root ganglion in vitro current clamp electrophysiology; format: cell-based; conditions: 25 μg/ml; for number of evoked action potentials: compared with vehicle or control antibody, administration at time=2 minutes
Procedure: Dorsal Root Ganglia were isolated from 1-2 wild-type rat pups, aged between postnatal day 1 and 3. Ganglia were washed in PBS after dissection and immediately placed into a DMEM (Lonza, #BE12-604F) solution containing 2 mg/ml collagenase (Sigma-Aldrich, #C2674) and incubated at 37° C. for approximately 45 minutes for enzymatic digestion. Collagenase solution was removed and replaced with DMEM supplemented with 10% Fetal Bovine Serum (Lonza, #DE14802F), 0.5 mM L-Glutamine (Lonza, #BE17-605E), 1% Penicillin/Streptomycin (Lonza, #BE17-603E) and 20 ng/ml nerve growth factor (NGF, Invitrogen). Ganglia were then mechanically triturated, centrifuged at 1000 g for 5 minutes, and resuspended in the same culture medium. Dissociated cells were counted and diluted to a suspension of 100,000-120,000 cells/ml on glass coverslips precoated with 50 μg/ml poly-D-lysine (Sigma) and 30 μg/ml laminin (Invitrogen) and incubated at 37° C., 5% CO2 until ready for use.
Dissociated DRG were taken for use no more than two days in vitro (DIV) following preparation. Cells were visualized on an Olympus BX50WI upright microscope with an Ikegami ICD-42B CCD camera. […] All recordings were acquired using pClamp 10 software (Molecular Devices) and subsequently analyzed in Clampfit 10 (Molecular Devices). […] The liquid junction potential was calculated to be 14.2 mV, all reported voltages have been corrected to compensate.
After formation of a tight seal (>1 GΩ) by release of positive pressure and manual suction in voltage clamp mode, capacitative currents were compensated and the command voltage was set to −70 mV. […] Whole cell parameters were recorded after dialysis. […] The amplifier was switched to current clamp mode and the resting membrane potential was recorded. […]
Cells were subsequently treated either with control or antibody solutions by fast bath perfusion directly on to the recorded cell for 90 seconds to sufficiently fill the recording chamber, at which point both perfusion and aspiration were halted. […]

[3] = biological target: T2, Mouse domain B loop E1 peptide B11 (Nav 1.7) (Mus musculus, UniProt Q62205); assay: Peptide binding ELISA, mouse B11 peptide
T2 construct: host or cells: synthetic peptide
Procedure: (§1) Nunc 96 well plates were coated overnight at 4° C. in 5 ug/ml Streptavidin (Jackson 016-000-114) 100 ul/well in carbonate coating buffer. Plates were washed four times in PBS/tween and 200 ul/well of block (1% BSA in PBS) was added for 1 hour at RT. Plates were washed four times in PBS/tween and 100 ul/well of biotinylated peptide at 5 ug/ml was added for 1 hour at RT. Plates were washed four times in PBS/tween and 100 ul/well of antibody added (starting at 10 ug/ml diluting in block in half logs down the plate) for 1 hour at RT. Plates were washed four times in PBS/tween and […] goat anti rabbit Fc HRP (Jackson 111-036-046) added for 1 hour at RT. Plates were washed four times in PBS/tween and 100 ul/well TMB (3,3′,5,5′ Tetramethylbenzidine) solution added. 50 ul/well of NaF was added to stop reaction and absorbance read at 630 nm.

human Nav1.7 channel = biological target: T3, human Nav1.7 channel (Homo sapiens, UniProt Q15858); assay: PatchXpress h Nav1.7 assay (automated Patch Clamp, HEK cells); format: cell-based; conditions: for dose dependence of inhibition of human Nav1.7 currents: recombinant human Nav1.7 in HEK cells, repeated voltage step protocol, end point
T3 construct: host or cells: HEK293
T3 sequence (Q15858 whole entry): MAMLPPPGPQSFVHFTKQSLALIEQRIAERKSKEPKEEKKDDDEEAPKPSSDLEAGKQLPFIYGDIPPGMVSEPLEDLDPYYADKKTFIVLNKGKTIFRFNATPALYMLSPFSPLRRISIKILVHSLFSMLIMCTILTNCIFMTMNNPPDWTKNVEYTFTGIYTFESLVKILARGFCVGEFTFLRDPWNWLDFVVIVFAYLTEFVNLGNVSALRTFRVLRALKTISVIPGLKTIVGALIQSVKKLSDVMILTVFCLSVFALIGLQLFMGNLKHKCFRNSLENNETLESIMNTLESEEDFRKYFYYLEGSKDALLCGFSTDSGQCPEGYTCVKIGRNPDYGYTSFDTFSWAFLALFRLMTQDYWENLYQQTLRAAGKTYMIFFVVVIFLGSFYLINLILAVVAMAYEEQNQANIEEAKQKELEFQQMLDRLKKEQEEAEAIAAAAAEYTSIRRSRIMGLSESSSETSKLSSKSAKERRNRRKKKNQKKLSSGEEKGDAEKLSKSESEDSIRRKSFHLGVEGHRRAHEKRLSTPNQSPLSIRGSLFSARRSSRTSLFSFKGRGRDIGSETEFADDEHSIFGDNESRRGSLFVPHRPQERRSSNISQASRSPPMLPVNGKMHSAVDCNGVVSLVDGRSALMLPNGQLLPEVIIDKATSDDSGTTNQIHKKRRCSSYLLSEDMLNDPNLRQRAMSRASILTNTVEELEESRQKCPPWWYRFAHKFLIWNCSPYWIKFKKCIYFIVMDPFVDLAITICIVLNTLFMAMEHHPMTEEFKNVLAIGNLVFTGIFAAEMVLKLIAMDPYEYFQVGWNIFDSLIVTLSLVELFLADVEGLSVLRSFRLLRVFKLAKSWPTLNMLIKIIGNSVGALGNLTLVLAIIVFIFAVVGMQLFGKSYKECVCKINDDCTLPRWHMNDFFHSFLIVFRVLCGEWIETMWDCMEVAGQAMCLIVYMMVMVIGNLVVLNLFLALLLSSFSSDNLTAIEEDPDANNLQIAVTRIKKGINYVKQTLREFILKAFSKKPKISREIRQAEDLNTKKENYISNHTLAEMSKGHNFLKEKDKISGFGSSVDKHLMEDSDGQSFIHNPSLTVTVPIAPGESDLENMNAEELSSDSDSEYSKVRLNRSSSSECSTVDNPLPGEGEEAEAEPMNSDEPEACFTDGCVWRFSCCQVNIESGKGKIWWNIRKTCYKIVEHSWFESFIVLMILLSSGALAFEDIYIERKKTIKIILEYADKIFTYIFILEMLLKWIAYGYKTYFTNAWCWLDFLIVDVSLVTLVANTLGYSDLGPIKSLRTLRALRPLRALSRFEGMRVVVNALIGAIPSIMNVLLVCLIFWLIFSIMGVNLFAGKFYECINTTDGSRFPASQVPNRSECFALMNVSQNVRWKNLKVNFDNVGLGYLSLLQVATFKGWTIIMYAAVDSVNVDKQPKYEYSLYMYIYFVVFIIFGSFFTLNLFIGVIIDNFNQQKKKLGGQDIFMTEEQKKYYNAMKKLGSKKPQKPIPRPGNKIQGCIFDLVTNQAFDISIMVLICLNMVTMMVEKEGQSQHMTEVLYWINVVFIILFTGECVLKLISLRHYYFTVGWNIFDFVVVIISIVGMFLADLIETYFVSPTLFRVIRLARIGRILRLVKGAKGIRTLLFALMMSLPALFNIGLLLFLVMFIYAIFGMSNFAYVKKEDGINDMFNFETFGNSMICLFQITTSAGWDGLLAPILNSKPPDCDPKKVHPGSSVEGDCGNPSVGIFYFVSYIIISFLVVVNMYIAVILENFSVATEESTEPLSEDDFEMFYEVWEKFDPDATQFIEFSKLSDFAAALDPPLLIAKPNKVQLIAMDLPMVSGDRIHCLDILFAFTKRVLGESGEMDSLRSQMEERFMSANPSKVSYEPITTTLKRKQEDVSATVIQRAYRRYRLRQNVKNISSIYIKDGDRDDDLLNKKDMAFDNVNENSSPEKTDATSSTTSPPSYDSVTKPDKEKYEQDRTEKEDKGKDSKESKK
Procedure: Extracellular solution contained (in mM): 130 NaCl, 4 KCl, 1.5 CaCl2, 1 MgCl2, 30 glucose, 10 HEPES (pH 7.4 with Tris-Base, and 300 to 305 mOsmolar). Intracellular solution contained (in mM): 5 NaCl, 115 CsF, 20 CsCl, […], 10 EGTA free acid (pH 7.2 with CsOH, and 290 to 295 mOsmolar) and was either made fresh or kept frozen. Extracellular and intracellular solutions were filtered prior to use. Antibodies were directly diluted in extracellular solution and were freshly (no more than 15 min) prepared before transfer to a 96-well polypropylene compound plate (Sarsted, #83.1835.500). For the experiments using selective peptide, antibodies and peptides, at equal concentrations, were preincubated at least 30-min at 4° C. prior Patch Clamp experiments.
HEK293 cells stably expressing the human Nav1.7 channel (type IX voltage-gated sodium channel alpha subunit) were purchased from Upstate (Upstate, Millipore, cat.#CYL3011). Cells were cultured in T-75 (BD BioCoat™ Collagen I Cellware, Becton Dickinson Labware, Bedford, Mass., #356485) flasks coated with collagen type I using standard culture medium DMEM-F12 with-Glutamine (Invitrogen, #11320) containing 10% FBS (Lonza, #DE14-802F), 1% penicillin+streptomycin (Lonza, DE17-603E), 1% non essential amino acids (Lonza, BE13-114E) and 400 μg/ml G418 (GIBCO, #10131-027). Cells were plated at a density of 15,000 cells/cm2 or 8,000 cells/cm2 density for 2 or 3 days respectively before being used on PatchXpress® 7000A (Axon instrument, new part of MDS Analytical Technologies). Cells confluence never exceeded 90%. The day of the experiment, cells were harvested using Accumax (Sigma, A7089). Briefly, cells were washed twice in PBS (Lonza, #BE12-516F) without calcium and magnesium, and a 1:4 dilution of Accumax solution was added and incubated for 1.5 to 2-min at 37° C. DMEM-F12 with 15 mMHEPES and L-glutamine (Lonza, #BE12-719F) containing 10% FBS (recovery media) was added to quench Accumax digestion. The cells were subsequently centrifuged at 1,000 rpm for 5-min in 50 ml falcon tube and pellets are resuspended in 10 ml of recovery media. Cells are counted (CoulterZ2) and suspended at ˜0.1 million cells/ml and transferred to a 15 ml screw-cap tube for minimum 90 minutes at room temperature. Cells were then centrifuged for 60-s at 1,000 rpm. The pellet was gently resuspended in 1,000 μl extracellular solution and centrifuged a second time for 30-s at 1,000 rpm. Pellet was resuspended in 150 μL extracellular solution and immediately tested on the PatchXpress®. […]
After 10-s, the pressure was switched from +4 to −30 mmHg to attract suspended cells to each of the 16 holes (electrodes). […] The cell was allowed to dialyze for 5 min, during which the access resistance was monitored. […]

[4] = biological target: T4, Human domain B loop E1 peptide B11 (Nav 1.7) (Homo sapiens, UniProt Q15858); assay: Peptide binding ELISA, human B11 peptide
T4 construct: host or cells: synthetic peptide
Procedure: as §1

Nav 1.7 peptide B11.7 = biological target: T5, Nav 1.7 peptide B11.7 (Homo sapiens, UniProt Q15858); assay: Peptide binding ELISA, cyclic Nav 1.7 peptide B11.7; conditions: biotinylated cyclic peptide on streptavidin plate
T5 construct: host or cells: synthetic peptide captured on streptavidin plates
Procedure: as §1

Molecule | pain reduction [1] [%] | dose dependence of inhibition of rat Nav1.7 currents (rat Nav1.7 channels; repeated voltage step protocol, end point) | number of evoked action potentials [2] | ELISA binding to Mouse domain B loop E1 peptide B11 [3] | human Nav1.7 current when stimulated only at the end of the protocol (human Nav1.7 channel; 25 μg/ml, stimulation only at end, after incubation of antibody) | human Nav1.7 currents under repeated activation (human Nav1.7 channel; 25 μg/ml, voltage step protocol at 0.1 Hz for ~20 minutes) | dose dependence of inhibition of human Nav1.7 currents (human Nav1.7 channel) | ELISA binding to Human domain B loop E1 peptide B11 [4] | ELISA binding to Nav 1.7 peptide (B11.7) (Nav 1.7 peptide B11.7) | inhibition of rat Nav1.7 currents (rat Nav1.7 channels; 25 μg/ml) [%] | electrically induced spike frequency of DRG neurons ([2]; normalized to frequency at time 0)
NCC1(CC(=O)O)CCCCC1 [gabapentin] | ≤ 50 |  |  |  |  |  |  |  |  |  | 
B1 |  | dose-dependent inhibition | significantly reduced | binding | does not produce an inhibition of the Nav1.7 current | reduced in the presence of the antibody (25 μg/ml) but only when repeated activation of the channel at 0.1 Hz is maintained | dose-dependent inhibition | binding | specific binding |  | 
B2 |  |  |  | binding |  |  | dose-dependent inhibition | binding | specific binding | ~26 | reduces
B3 |  |  | significantly reduced |  |  |  |  |  |  |  | 
